Reference: PMC5517481 (2017)

B1: R11.1.6 expressed on the surface of yeast (designed binder)
chain: ATVKFTHQGEEKQVDISKIKWVIRWGQYIWFKYDEDGGAKGWGYVSEKDAPKELLQMLKKR
B2: SUMO-R11.1.6 fusion protein (designed binder)
chain: B1 chain

Tests used:
[1] = molecular target: T1, His6-SUMO-K-Ras WT (human, UniProt P01116-2 1-166); assay: FACS; GDP-loaded
[2] = molecular target: T1, His6-SUMO-K-Ras WT; assay: FACS; GppNHp-loaded
[3] = molecular target: N-Ras WT (G domain, residues 1-166) (UniProt P01111 1-166, biotinylated for BLI (site not stated)); assay: BLI; GppNHp-loaded
[4] = molecular target: K-Ras WT (G domain, residues 1-166) (human, UniProt P01116-2 1-166, biotinylated for BLI (site not stated)); assay: BLI; GppNHp-loaded
[5] = molecular target: H-Ras WT (G domain, residues 1-166) (UniProt P01112 1-166, biotinylated for BLI (site not stated)); assay: BLI; GppNHp-loaded

Row | Binder | Kd [1] [nM] | Kd [2] [nM] | Kd [3] [nM] | Kd [4] [nM] | Kd [5] [nM]
1 | B1 | 2.8 | 50.3 | – | – | –
2 | B2 | – | – | 7 | 41 | 10
